Results published in patent US20080292632A1 (US Dept. of Health and Human Services, published 2008).

Experiments:
Assay in all cases: FACS on transfected 293T (summary with IRTA-Fc ELISA, FIG. 2A and B)
[1] = molecular target: T1, IRTA1, full-length, on transfected 293T cells (human, UniProt Q96PJ5 20-515)
T1 sequence: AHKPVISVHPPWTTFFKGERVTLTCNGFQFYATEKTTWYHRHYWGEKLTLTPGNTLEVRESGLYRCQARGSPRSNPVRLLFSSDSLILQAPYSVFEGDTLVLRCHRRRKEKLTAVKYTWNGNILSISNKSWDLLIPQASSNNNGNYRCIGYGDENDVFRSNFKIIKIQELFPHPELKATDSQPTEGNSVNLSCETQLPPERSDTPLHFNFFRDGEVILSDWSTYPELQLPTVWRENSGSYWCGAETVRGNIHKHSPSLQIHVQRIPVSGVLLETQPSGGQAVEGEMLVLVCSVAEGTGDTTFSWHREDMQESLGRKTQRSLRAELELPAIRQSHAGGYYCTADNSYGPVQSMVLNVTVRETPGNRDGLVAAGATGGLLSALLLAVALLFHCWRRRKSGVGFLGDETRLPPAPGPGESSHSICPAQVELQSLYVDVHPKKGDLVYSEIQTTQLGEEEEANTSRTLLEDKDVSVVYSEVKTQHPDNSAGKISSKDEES
Procedure: (§1) FIGS. 2A-B are a bar graph and a set of plots showing the cross-reactivity of the anti-IRTA2 MAbs to other IRTA family members. FIG. 2A is a bar graph of the results from an ELISA of anti-IRTA2 MAbs to various Fc-fusion proteins. Each Fc-fusion protein indicated on the top of the column was captured on ELISA plates using secondary antibody (goat anti-human IgG). After washing, 100 ng/50 μl/well of MAbs were added, followed by HRP-labeled goat anti-mouse IgG and TMBZ substrate. The signals in ELISA were normalized for the amounts of each Fc-fusion protein on the plates using HRP-goat anti-human Fc. The controls are MAbs 9E10 (anti-myc tag, IgG1), BerH2 (anti-CD30, IgG1), T408 (anti-CD30, IgG2a), T420 (anti-CD30, IgG2b) and HRP-goat anti-human Fc (1/2400 dilution). […] Two days after transfection, the cells were harvested and incubated with 200 ng/100 μl of each MAb, followed by PE-conjugated goat anti-mouse IgG F(ab′)2. […] In the positive control panels, the MAbs cross-reactive to other IRTAs were used. They are F26 (anti-IRTA1 and anti-IRTA2, IgG2b), F109 (anti-IRTA3, IgG2b), F47 (anti-IRTA4, IgG2a), and F69 (anti-IRTA5, IgG2a). BerH2 (anti-CD30, IgG1) was also used. “+” indicates more than 1.5-fold than that of the control; “++” indicates more than 10-fold mean fluorescence intensity than that of the negative control.

[2] = molecular target: T2, IRTA3, full-length, on transfected 293T cells (human, UniProt Q96P31 18-734)
T2 sequence: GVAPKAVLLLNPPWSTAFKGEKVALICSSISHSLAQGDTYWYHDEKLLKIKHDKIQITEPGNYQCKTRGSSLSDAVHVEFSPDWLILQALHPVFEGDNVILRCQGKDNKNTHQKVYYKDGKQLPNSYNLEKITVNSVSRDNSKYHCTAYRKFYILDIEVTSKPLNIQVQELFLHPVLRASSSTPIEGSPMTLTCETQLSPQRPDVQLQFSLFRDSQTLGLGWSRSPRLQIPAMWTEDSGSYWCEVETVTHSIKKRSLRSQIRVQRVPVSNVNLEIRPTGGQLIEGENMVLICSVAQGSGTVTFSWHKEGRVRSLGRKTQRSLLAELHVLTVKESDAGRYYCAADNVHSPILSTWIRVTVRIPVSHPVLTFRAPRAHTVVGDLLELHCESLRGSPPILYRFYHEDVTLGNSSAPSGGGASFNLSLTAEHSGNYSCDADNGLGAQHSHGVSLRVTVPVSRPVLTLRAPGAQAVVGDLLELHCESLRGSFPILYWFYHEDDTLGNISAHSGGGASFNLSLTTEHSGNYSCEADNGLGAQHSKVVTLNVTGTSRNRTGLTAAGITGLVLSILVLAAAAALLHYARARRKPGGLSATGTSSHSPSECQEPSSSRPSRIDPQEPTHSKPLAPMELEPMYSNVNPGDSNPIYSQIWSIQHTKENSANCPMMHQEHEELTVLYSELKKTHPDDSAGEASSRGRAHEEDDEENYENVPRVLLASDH
Procedure: as §1

[3] = molecular target: T3, IRTA4, full-length, on transfected 293T cells (human, UniProt Q96LA5 20-508)
T3 sequence: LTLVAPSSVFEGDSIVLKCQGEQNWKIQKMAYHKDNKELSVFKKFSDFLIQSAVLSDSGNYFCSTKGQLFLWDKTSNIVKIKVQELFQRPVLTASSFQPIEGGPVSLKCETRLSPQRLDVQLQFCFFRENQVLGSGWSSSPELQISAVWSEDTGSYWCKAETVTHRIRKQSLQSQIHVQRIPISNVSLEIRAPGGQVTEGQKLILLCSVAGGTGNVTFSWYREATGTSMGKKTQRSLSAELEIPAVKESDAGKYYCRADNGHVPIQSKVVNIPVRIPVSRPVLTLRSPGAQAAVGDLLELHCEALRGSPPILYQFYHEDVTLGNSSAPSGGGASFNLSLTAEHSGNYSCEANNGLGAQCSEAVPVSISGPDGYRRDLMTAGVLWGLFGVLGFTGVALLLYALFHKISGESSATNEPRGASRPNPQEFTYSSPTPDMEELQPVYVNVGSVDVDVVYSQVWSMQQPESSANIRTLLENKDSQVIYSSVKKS
Procedure: as §1

Measured: binding result

B1: F25 (antibody, IgG2a, V domains shown)
VH: EVQLQQSGPELVKPGTSVKMSCKASGYSFTGYFMNWMMQNHGKSLEWIGRINLYNGDTFYNQKFKDKATLTVDKSSNTVHMEFRSLASEDSAVYYCASSLYYFDYWGQGTTFTVSS
VL: DIVMTQSHKFMSTSVGDRVNITCKASQDVGTNVAWYQQKPGQSPKLLIYWASTRQTGVPDRFTGSGSGTDFTLTISNVQSEDLSDYFCQQYSSYPLTFGAGTKLELKR
notes: mouse hybridoma MAb, IgG2a, kappa; also called MAb F25; biotin-MAb F25
no binding: all assays above
